Data published in patent publication US20250154548A1, “CONTROL OF ENZYMATIC NUCLEIC ACID SYNTHESIS VIA ELECTROCHEMICAL MEANS” (The Charles Stark Draper Laboratory, Inc., priority 2023, published 2025).

Assay: Proteinase K activity as a function of pH and after pH neutralization
Assay type: biochemical
Details: for recovery of proteinase K activity after neutralization: after exposure to highly acidic (pH 3.5) or basic (pH 12) conditions, neutralized to pH 7 to 7.5
Description: FIGS. 1A-1C provide information on activating proteinase K at different pH conditions.
Another method of deblocking after nucleotide addition using a conjugated enzyme is to digest the protein around the extended DNA. Proteinase K (ProK) is a hydrolase that digests proteins at aliphatic and aromatic residues making it a broad-spectrum protease^1 that could be used to fully digest TdT releasing the extended DNA for the next round of addition. This enzymatic cleavage step could potentially be spatially controlled via an electrochemically driven pH change, as depicted in FIG. 1A. […] A voltage would then be applied to electrodes near the DNA site to be cleaved for the next addition. This would cause a shift in the pH near this active electrode that would re-activate ProK to digest nearby TdT molecules, deblocking the DNA for subsequent nucleotide addition. ProK has some natural pH sensitivity^1-2 and could be further engineered to shift the activity profile into a desirable pH range.

B1: Proteinase K: hydrolase that digests proteins at aliphatic and aromatic residues, a broad-spectrum protease (protein, UniProt P06873 106-384, looked up)
Proteinase K: AAQTNAPWGLARISSTSPGTSTYYYDESAGQGSCVYVIDTGIEASHPEFEGRAQMVKTYYYSSRDGNGHGTHCAGTVGSRTYGVAKKTQLFGVKVLDDNGSGQYSTIIAGMDFVASDKNNRNCPKGVVASLSLGGGYSSSVNSAAARLQSSGVMVAVAAGNNNADARNYSPASEPSVCTVGASDRYDRRSSFSNYGSVLDIFGPGTSILSTWIGGSTRSISGTSMATPHVAGLAAYLMTLGKTTAASACRYIADTANKGDLSNIPFGTVNLLAYNNYQA
  recovery of proteinase K activity after neutralization: recovers
Listed as ProK
  recovery of proteinase K activity after neutralization: activity can be recovered
At pH 12.5
  proteinase K activity: negligible activity
Below pH 5 and above pH 10
  proteinase K activity (relative to activity at pH 7.3): complete dropoff in activity
